Test results: patent US12466853B2, “Selective targeting of apoptosis proteins by structurally-stabilized and/or cysteine-reactive NOXA peptides” (priority 2017, dated 2025)
Residue numbers refer to the chain shown, from its start. Positions of bridges follow the written chain, without caps; N, C: chain ends. Non-standard residues stand in square brackets, D forms with d. No end group written: not given here. R8 = C=CCCCCCC[C@@](C)(N)C(=O)O; S5 = C=CCCC[C@](C)(N)C(=O)O

How the values were obtained:
[1] = test system: ATM S1981 and CHK2 S33/35 phosphorylation in U937 cells; assay: Phospho-signaling analysis (western blot); format: cell-based, human; settings: 2 hr
Source text: Cells were then washed with PBS, lysed in 1% CHAPS buffer, and the supernatant collected for protein concentration determination by BCA kit. Samples were subjected to electrophoresis and western analysis using 1:1000 dilutions of phospho-ATM (S1981, Cell Signaling, #4526), ATM (Abcam, #ab78), phospho-CHK2 (Ser33/35, Cell Signaling, #2665), CHK2 (Cell Signaling, #2662), and actin (Sigma #A1978) antibodies.

[2] = test system: BAX protein in U937 cells; assay: Dynamic assessment of BAX protein levels (western blot); format: cell-based, human; settings: 5 μM
Method: U937 cells were plated in 6-well plates (2×10^6 cells per well), treated with AZD0156 (5 μM), and the cells harvested and lysed at the indicated time points. Cell lysates were then subjected to electrophoresis and western blotting with BAX (Santa Cruz sc-493) and actin (Sigma #A1978) antibodies.

full-length BFL-1 = biological target: T1, full-length BFL-1 (Homo sapiens, UniProt Q16548); assay: Covalent crosslinking to full-length BFL-1, recombinant and HA-tagged expressed in 293T cells; format: binding; settings: recombinant and expressed in 293T cells; somewhat reduced efficiency vs C-terminally truncated species
T1 construct: Recombinant full-length BFL-1 (aa-175) containing an N-terminal hexahistidine tag; made in house
T1 sequence (Q16548 1-175): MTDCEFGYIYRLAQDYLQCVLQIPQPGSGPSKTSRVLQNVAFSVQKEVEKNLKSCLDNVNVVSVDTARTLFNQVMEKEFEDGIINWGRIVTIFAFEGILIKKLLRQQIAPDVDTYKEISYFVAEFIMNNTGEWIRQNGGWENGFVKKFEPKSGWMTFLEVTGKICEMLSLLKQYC
Source text: We confirmed that both of our lead constructs could covalently crosslink to full-length BFL-1 protein, which bears a C-terminal helix that could potentially compete with D-NA-NOXA SAHBs for interaction at the canonical BH3-binding pocket in cancer cells. We generated recombinant full-length BFL-1 and expressed HA-tagged full-length BFL-1 in 293T cells, and then conducted crosslinking analyses in vitro and in treated cells, respectively.
Recombinant full-length BFL-1 (aa-175) containing an N-terminal hexahistidine tag was cloned into the PTYB1 vector (New England Biolabs) and purified as above except for the addition of a chitin affinity chromatography and DTT elution step. Protein purity and identity was confirmed by Coomassie staining and western blot analysis using a mouse monoclonal anti-His6 tag antibody (Abcam).
His-BFL-1ΔC C4S/C19S protein (5 μM) was pre-treated with 10 mM DTT in 50 mM Tris (pH 8.0) and 100 mM NaCl for 30 min at room temperature (final volume […]) and then combined with a 10:1 molar ratio of cysteine-reactive NOXA SAHB for an additional 1-hr incubation at room temperature. The samples were then boiled in 3× loading buffer with DTT and electrophoresed on 12% Bis-Tris gel, then subjected to Coomassie staining.

His-BFL-1ΔC = biological target: T2, His-BFL-1ΔC (Homo sapiens, UniProt Q16548); assay: Streptavidin pulldown from recombinant protein mixture, BFL-1; format: binding; settings: equimolar mixture of recombinant MCL-1, BCL-XL, BFL-1 and biotinylated SAHB, silver stain
T2 construct: Recombinant anti-apoptotic BFL-1ΔC (aa 1-151) and its cysteine to serine mutants were cloned into PET17b; made in house; host or cells: Escherichia coli LOBSTR BL21(DE3)
T2 sequence (Q16548 1-151): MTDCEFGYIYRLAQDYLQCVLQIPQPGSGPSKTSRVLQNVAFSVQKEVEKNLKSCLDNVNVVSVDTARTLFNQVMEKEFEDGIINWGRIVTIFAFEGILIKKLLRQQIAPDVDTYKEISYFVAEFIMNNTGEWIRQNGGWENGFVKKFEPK
Method: (§1) WT His-BFL-1ΔC, BCL-XLΔC (tagless), and GST-MCL-1ΔNΔC (1 μM each) were combined and incubated with 3 mM DTT in PBS for thirty minutes at room temperature. Mixtures were treated with vehicle or the indicated C-terminally biotinylated NOXA SAHB (1 μM) for four hours and were then added to 30 μL PBS-washed high-capacity streptavidin (SA) agarose beads (Thermo Fisher Pierce) and incubated with rotation at room temperature for two hours. The beads were then washed three times with NP-40 lysis buffer (1% NP-40, 50 mM Tris pH 8, 100 mM NaCl, 2.5 mM MgCl2) and three times with PBS. To elute bound protein, beads were boiled for ten minutes with 10% SDS containing 10 mg/mL biotin. After elution, samples were boiled with 3×LDS and 2M DTT for twenty minutes. Gel electrophoresis using a 12% Bis-Tris gel was conducted on inputs (2%) and eluates (5 μL) and gels were developed using the Pierce silver staining kit (Thermo Fisher).

native BFL-1 = biological target: T3, native BFL-1 (Homo sapiens, UniProt Q16548); assay: BFL-1 targeting in A375P lysates (streptavidin pulldown, BFL-1 western); format: binding; settings: biotinylated SAHB, compared to acetylated construct
T3 construct: endogenous in cells; host or cells: A375P melanoma cells (A10); U937 AML cells (A12), lysates
T3 sequence (Q16548 1-175): T1 sequence (Q16548 1-175)
Method: (§2) Cultured A375P and U937 cells were trypsinized or harvested, respectively, washed with PBS, and lysed by incubating with 1% CHAPS lysis buffer (1% CHAPS, 150 mM NaCl, 50 mM Tris pH 7.4, 100 μM DTT). The protein concentrations of the soluble fraction were measured using a BCA kit according to the manufacturer's instructions (Thermo Scientific). Lysate samples (1 mg) were incubated with vehicle or C-terminally biotinylated NOXA SAHBs (30 μM) overnight in 1% CHAPS lysis buffer at 4° C. Biotin capture was accomplished by incubating the mixture with high-capacity SA agarose (Thermo Scientific) for 2 hours at 4° C., followed by centrifugation and washing the pelleted beads three times with lysis buffer (1 mL). Bead-bound proteins were eluted by boiling in 10% SDS containing 10 mg/mL biotin for 10 minutes and then subjected to electrophoresis and western blotting using BFL-1 (Abcam, #125259) and MCL-1 (Rockland #600-401-394S) antibodies.

MCL-1 = biological target: T4, MCL-1 (Homo sapiens, UniProt Q07820); assay: MCL-1 engagement in A375P lysates (streptavidin pulldown, MCL-1 western); format: binding; settings: biotinylated SAHB
T4 construct: endogenous protein in lysates from the A375P melanoma cell line; endogenous in cells; host or cells: A375P melanoma cells (lysate)
Method: as §2

[3] = biological target: T5, HA-BFL-1ΔC C4S/C19S / tBID (Homo sapiens, UniProt Q16548, C19S/C4S); assay: BFL-1/BH3 complex disruption: competition with tBID in 293T lysates; format: binding; settings: anti-HA immunoprecipitation
T5 construct: Recombinant anti-apoptotic BFL-1ΔC (aa 1-151) and its cysteine to serine mutants were cloned into PET17b; expressed in transfected cells; host or cells: 293T (lysate)
T5 sequence (Q16548 1-151 C4S/C19S): T2 sequence (Q16548 1-151) with C4S, C19S
Method: (§3) To evaluate the capacity of biotinylated SAHBs to compete with tBID for interactions with BFL-1 and MCL-1, 293T cells were transfected with either HA-BFL-1ΔC C4S/C19S or FLAG-MCL-1 in the p3XFLAG-CMV-10 vector (Sigma) as above. After 24 hr, cells were trypsinized, washed with PBS, lysed in 1% CHAPS buffer, and the supernatant collected for protein concentration determination by BCA kit. Lysate samples (0.5 mg) were incubated with 0.25 μM recombinant tBID (R&D Systems) and 5 μM biotinylated NOXA SAHBs for 6 h at RT. The mixtures were then subjected to HA or FLAG immunoprecipitation, followed by western analysis using 1:1000 dilutions of HA (Sigma Aldrich, #12CA5), FLAG (Sigma-Aldrich, F7425), and BID (Santa Cruz sc-11423) antibodies.

FLAG-MCL-1 / tBID = biological target: T6, FLAG-MCL-1 / tBID (Homo sapiens, UniProt Q07820); assay: MCL-1/tBID complex disruption in 293T lysates; format: binding; settings: FLAG immunoprecipitation
T6 construct: expressed in transfected cells; host or cells: 293T (lysate)
T6 sequence (Q07820 whole entry): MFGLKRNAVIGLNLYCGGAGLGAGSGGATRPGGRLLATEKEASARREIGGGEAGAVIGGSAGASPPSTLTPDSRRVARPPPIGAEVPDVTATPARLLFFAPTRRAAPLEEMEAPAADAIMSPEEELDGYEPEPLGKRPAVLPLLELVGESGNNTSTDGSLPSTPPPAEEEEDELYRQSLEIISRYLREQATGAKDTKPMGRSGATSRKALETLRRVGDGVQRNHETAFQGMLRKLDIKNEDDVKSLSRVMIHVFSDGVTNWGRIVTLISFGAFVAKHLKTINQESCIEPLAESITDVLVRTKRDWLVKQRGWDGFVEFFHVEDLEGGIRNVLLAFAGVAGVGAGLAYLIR
Method: as §3

GST-MCL-1ΔNΔC = biological target: T7, GST-MCL-1ΔNΔC (Homo sapiens, UniProt Q07820); assay: Streptavidin pulldown from recombinant protein mixture, MCL-1; format: binding; settings: equimolar mixture of recombinant MCL-1, BCL-XL, BFL-1 and biotinylated SAHB, silver stain
T7 construct: BCL-XLΔC (aa 1-212) and MCL-1ΔNΔC (aa 172-329) were cloned into the PGEX-4T-1; made in house; host or cells: Escherichia coli BL21(DE3)
T7 sequence (Q07820 172-329, stated change not applied): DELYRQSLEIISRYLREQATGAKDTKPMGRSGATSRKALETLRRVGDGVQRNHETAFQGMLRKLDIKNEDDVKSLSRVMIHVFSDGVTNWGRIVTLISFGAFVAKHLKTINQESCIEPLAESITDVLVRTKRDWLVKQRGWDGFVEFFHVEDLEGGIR
Method: as §1

BCL-XLΔC (tagless) = biological target: T8, BCL-XLΔC (tagless) (Homo sapiens, UniProt Q07817); assay: Streptavidin pulldown from recombinant protein mixture, BCL-XL; format: binding; settings: equimolar mixture of recombinant MCL-1, BCL-XL, BFL-1 and biotinylated SAHB, silver stain
T8 construct: Recombinant anti-apoptotic BCL-XLΔC (aa 1-212) and MCL-1ΔNΔC (aa 172-329); GST (N, cleaved yes); made in house; host or cells: Escherichia coli BL21(DE3)
T8 sequence (Q07817 1-212, stated change not applied): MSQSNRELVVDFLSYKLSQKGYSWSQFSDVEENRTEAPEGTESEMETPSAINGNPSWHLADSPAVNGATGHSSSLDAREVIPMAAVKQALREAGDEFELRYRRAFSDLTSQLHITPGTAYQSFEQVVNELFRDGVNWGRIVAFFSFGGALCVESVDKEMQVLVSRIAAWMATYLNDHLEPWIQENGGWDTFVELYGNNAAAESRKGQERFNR
Method: as §1

Compound	ATM auto-phosphorylation at S1981 [1]	CHK2 phosphorylation at S33/35 [1]	protein level of pro-apoptotic BAX [2]	covalent crosslinking to full-length BFL-1 (full-length BFL-1)	BFL-1 binding / pull down (His-BFL-1ΔC)	BFL-1 binding / pull down (His-BFL-1ΔC; listed as D-NA-NOXA-15 F32A SAHB)	targeting of native BFL-1 (native BFL-1)	MCL-1 engagement (MCL-1)	competition with tBID for HA-BFL-1ΔC C4S/C19S interaction [3]	dissociation of FLAG-MCL-1/tBID interaction (FLAG-MCL-1 / tBID)	MCL-1 binding / pull down (GST-MCL-1ΔNΔC)	BCL-XL binding / pull down (BCL-XLΔC (tagless))
CN(C)CCCOc1ccc(-c2ccc3ncc4c(c3c2)n(C2CCOCC2)c(=O)n4C)cn1 [AZD0156]	dose-responsive inhibition of S1981 auto-phosphorylation	potent blockade of CHK2 phosphorylation even at the lowest treatment dose	time-dependent increase in the protein level of pro-apoptotic BAX	–	–	–	–	–	–	–	–	–
JAT8LRRAGDXLNFRQ [D-NA-NOXA-15 F32A]	–	–	–	covalent crosslinking to recombinant and expressed full-length BFL-1	striking competitive advantage for BFL-1 targeting over its acetylated counterpart	notably more BFL-1 engagement	enhanced targeting of native BFL-1	approximately equivalent binding to MCL-1	near total inhibition of tBID co-immunoprecipitation	neither D-NA- nor Ac-NOXA15 F32A is able to dissociate the interaction	–	–
AT8LRRAGDXLNFRQ (AT[R8]LRRAGD[S5]LNFRQ; staple 3-10; not fully specified (N-terminus); printed as AT8LRRAGDXLNFRQ) [Ac-NOXA-15 F32A, acetylated counterpart of D-NA-NOXA-15 F32A]	–	–	–	–	no binding	–	–	approximately equivalent binding to MCL-1	incapable of competing with tBID for HA-BFL-1 binding	neither D-NA- nor Ac-NOXA15 F32A is able to dissociate the interaction	detectable but minimal direct interaction	no binding
